The values below are quoted from earlier work in article PMC11346406.

By Kd is commonly meant the concentration at which binding is half-saturated.

This data set concerns the target TDP-43 PLD (Homo sapiens) (UniProt Q13148). The data set is described as follows: NMR.

Chain of TDP-43 RRM1-RRM2 (Q13148 102-269): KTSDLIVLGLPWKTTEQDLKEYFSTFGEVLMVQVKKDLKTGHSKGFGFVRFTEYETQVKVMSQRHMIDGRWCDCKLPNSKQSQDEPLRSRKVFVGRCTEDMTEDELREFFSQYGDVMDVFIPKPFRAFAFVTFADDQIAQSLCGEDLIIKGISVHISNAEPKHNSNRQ
Chain of TDP-43 PLD (Homo sapiens) (Q13148 274-414): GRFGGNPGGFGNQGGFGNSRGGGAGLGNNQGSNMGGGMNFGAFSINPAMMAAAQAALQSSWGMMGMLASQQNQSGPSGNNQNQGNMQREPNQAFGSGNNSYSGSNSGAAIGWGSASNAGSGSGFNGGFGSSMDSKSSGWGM

Turning to TDP-43 RRM1-RRM2 (from UniProt Q13148), the equilibrium dissociation constant (Kd) is 5 µM.
